These results are taken from patent US20100168031.

Series [1] deals with L(+)-biotinyl-aminohexanoyl-Glu-Asp-Glu-Asp-Asp-Tyr-His-Asn-Pro-Gly-Gly-OH (SEQ ID NO:14).
Series [2] has as its system L(+)-biotinyl-aminohexanoyl-Glu-Glu-Gly-Ala-Pro-Asp-Tyr-Glu-Asn-Leu-Gln-Glu-Leu-Asn (SEQ ID NO:12).
Series [3] deals with L(+)-biotinyl-aminohexanoyl-Glu-Ser-Ile-Asp-Asp-Tyr-Val-Asn-Val-Pro-Glu-Gly-OH (SEQ ID NO:13).
In series [4] the test system is compounds of SEQ ID NO:12; SEQ ID NO: 13; or SEQ ID NO: 14.

“recombinant full-length human Syk (p72syk protein tyrosine kinase)”: the “phosphorylation of the peptide by the kinase, time resolved fluorescence resonance energy transfer” value in series [1], in series [2] and in series [3] was “are phosphorylated by Syk” each time. Further, the “fluorescence units (TR-FRET phosphorylation assay, 370 nM peptide, 10 nM Syk, 20 µM ATP)” value in series [4] was 20,000 to 30,000 fluorescence units.
